Experimental data as given in patent US20240124607A1 (Merck Sharp & Dohme, published 2024).
Positions count from the first letter of the chain named.

B1: AB0621 F3' CEACAM5 TriNKET (bispecific antibody, human IgG1, kappa)
chain: DIVMTQSPDSLAVSLGERATINCKSSHSLLYGNFQNNYLAWYQQKPGQPPKLLIYWASTRESGVPDRFSGSGSGTDFTLTISSLQAEDVAVYYCQQYYSYPYTFGCGTKLEIKGGGGSGGGGSGGGGSGGGGSQVQLVQSGAEVKKPGASVKVSCKASGYTFTAYTIHWVRQAPGQCLEWMGYINPSSGYTEYNQKFKDRTTLTADTSISTAYMELSRLRSDDTAVYYCTREGGLLWFDYWGQGTLVTVSSGSDKTHTCPPCPAPELLGGPSVFLFPPKPKDTLMISRTPEVTCVVVDVSHEDPEVKFNWYVDGVEVHNAKTKPREEQYNSTYRVVSVLTVLHQDWLNGKEYKCKVSNKALPAPIEKTISKAKGQPREPRVYTLPPCRDELTKNQVSLTCLVKGFYPSDIAVEWESNGQPENNYKTTPPVLVSDGSFTLYSKLTVDKSRWQQGNVFSCSVMHEALHNHYTQKSLSLSPG
heavy: EVQLVESGGGLVKPGGSLRLSCAASGFTFSSYSMNWVRQAPGKGLEWVSSISSSSSYIYYADSVKGRFTISRDNAKNSLYLQMNSLRAEDTAVYYCARGAPIGAAAGWFDPWGQGTLVTVSSASTKGPSVFPLAPSSKSTSGGTAALGCLVKDYFPEPVTVSWNSGALTSGVHTFPAVLQSSGLYSLSSVVTVPSSSLGTQTYICNVNHKPSNTKVDKKVEPKSCDKTHTCPPCPAPELLGGPSVFLFPPKPKDTLMISRTPEVTCVVVDVSHEDPEVKFNWYVDGVEVHNAKTKPREEQYNSTYRVVSVLTVLHQDWLNGKEYKCKVSNKALPAPIEKTISKAKGQPREPQVCTLPPSRDELTENQVSLTCLVKGFYPSDIAVEWESNGQPENNYKTTPPVLDSDGSFFLYSWLTVDKSRWQQGNVFSCSVMHEALHNHYTQKSLSLSPG
light: DIQMTQSPSSVSASVGDRVTITCRASQGISSWLAWYQQKPGKAPKLLIYAASSLQSGVPSRFSGSGSGTDFTLTISSLQPEDFATYYCQQGVSFPRTFGGGTKVEIKRTVAAPSVFIFPPSDEQLKSGTASVVCLLNNFYPREAKVQWKVDNALQSGNSQESVTEQDSKDSTYSLSSTLTLSKADYEKHKVYACEVTHQGLSSPVTKSFNRGEC
B2: AB0264 F3' CEACAM5 TriNKET (bispecific antibody, human IgG1, kappa)
chain: B1 chain with S210P
heavy: B1 heavy
light: B1 light
B3: AB0411 F3' CEACAM5 TriNKET (bispecific antibody, human IgG1, kappa)
chain: DIQLTQSPATLSVSPGERATLSCRASQSVSSSYLAWYQQKPGQAPRLLIYGASSRATGIPDRFSGSGSGTDFTLTISRLEPEDFAVYYCQQYNNWPLTFGCGTKVEIKGGGGSGGGGSGGGGSGGGGSQVQLVQSGGGLVQPGGSLRLSCAASGFTFTSYAMSWVRQAPGKCLEWVSAISGTGDSTFYADSVKGRFTFSRDNSKNTLYLQMNSLRAEDTAVYYCAKDLGWLQYGLFDYWGQGTLVTVSSGSDKTHTCPPCPAPELLGGPSVFLFPPKPKDTLMISRTPEVTCVVVDVSHEDPEVKFNWYVDGVEVHNAKTKPREEQYNSTYRVVSVLTVLHQDWLNGKEYKCKVSNKALPAPIEKTISKAKGQPREPRVYTLPPCRDELTKNQVSLTCLVKGFYPSDIAVEWESNGQPENNYKTTPPVLVSDGSFTLYSKLTVDKSRWQQGNVFSCSVMHEALHNHYTQKSLSLSPG
heavy: B1 heavy
light: B1 light

Legend:
Human CEACAM1 = biological target: T1, Human CEACAM1 (human, UniProt P13688 35-428, limits assumed); assay: SPR, 37C, pH 7.4
T1 sequence (looked up): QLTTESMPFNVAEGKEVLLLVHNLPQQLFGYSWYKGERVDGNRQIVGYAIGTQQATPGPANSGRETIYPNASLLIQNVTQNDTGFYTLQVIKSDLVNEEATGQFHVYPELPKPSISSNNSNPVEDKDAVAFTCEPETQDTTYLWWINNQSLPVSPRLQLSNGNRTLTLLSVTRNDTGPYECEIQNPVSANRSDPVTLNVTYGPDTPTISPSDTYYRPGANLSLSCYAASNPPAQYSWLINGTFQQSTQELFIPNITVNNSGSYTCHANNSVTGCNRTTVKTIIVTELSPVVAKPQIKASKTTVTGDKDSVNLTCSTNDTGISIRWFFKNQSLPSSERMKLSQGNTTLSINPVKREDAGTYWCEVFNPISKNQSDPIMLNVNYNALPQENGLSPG
Procedure: To determine the affinity and cross-reactivity of CEACAM5 TriNKET molecules, AB0411, AB0466, or AB0621 TriNKETs were captured using an anti-human Fc capture antibody (Cytiva, #BR100839) immobilized onto a Biacore CM5 standard surface sensor chip following manufacturer instructions. Human or cynomolgus CEACAM5 were titrated over captured AB0411, AB0466, and AB0621 as 2-fold serial dilutions starting from 300 nM. Association was monitored for 300 sec and dissociation was monitored for 600 sec. The assay was run at 37° C. at pH 7.4 and 6.0. The surface of the CM5 chip was regenerated with 10 mM glycine pH 1.5 for 20 sec at 100 μL/min.
Binding to human and cynomolgus CEACAM1, 6, and 8 was assessed by SPR using the same protocol as for CEACAM5 but using up to 600 and 1200 nM for titration of each protein. There were no detectable binding signals at these concentrations for AB0621. In contrast, reproducible weak binding signals were detected for AB0411 and AB0466, but these two TriNKETs also bound to different epitope(s) on the N-terminus of CEACAM5. Typical weak binding sensorgrams for AB0411 and AB0466 against human CEACAM1 and 6 indicated weak but notable signals compared to AB0621. […]

CEACAM5 A1-B1-Fc = biological target: T2, CEACAM5 A1-B1-Fc (human, UniProt P06731 145-322, limits assumed); assay: SPR, Fab capt, 25C
T2 construct: also called A1-B1 domain
T2 sequence: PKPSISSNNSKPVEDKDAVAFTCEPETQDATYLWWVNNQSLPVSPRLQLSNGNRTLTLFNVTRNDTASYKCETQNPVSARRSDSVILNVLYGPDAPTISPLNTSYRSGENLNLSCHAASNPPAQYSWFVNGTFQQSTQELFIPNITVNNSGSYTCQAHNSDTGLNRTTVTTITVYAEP
Procedure: If the protein domain was an Fc fusion, AB0411, AB0466, AB0264, or AB0621 were captured using an anti-human Fab antibody (Cytiva, #28958325) immobilized onto a CM5 chip. The various hCEACAM5 protein domains (N-term, A1-B1, A2, B2, A3, or B3) were titrated over the captured TriNKETs at 50 μL/min for 180 sec of association and 300 sec of dissociation. The assay was run at 25° C. in HBS-EP+ running buffer, pH 7.4. The surface of the CM5 chip was regenerated using […] glycine pH 2.1.

human CEACAM5 on cells [1] = biological target: T3, human CEACAM5 on cells (human, UniProt P06731 35-685); assay: flow cytometry, BxPC-3 cells
T3 construct: tumour cell lines with endogenous CEACAM5, or B16F10 engineered to express hCEACAM5; also called CEACAM5 on MKN-45, HPAF-II, SK-CO-1, LoVo, BxPC-3, Kato-III, LS-174T, ZR-75-30; hCEACAM5-B16F10
T3 sequence: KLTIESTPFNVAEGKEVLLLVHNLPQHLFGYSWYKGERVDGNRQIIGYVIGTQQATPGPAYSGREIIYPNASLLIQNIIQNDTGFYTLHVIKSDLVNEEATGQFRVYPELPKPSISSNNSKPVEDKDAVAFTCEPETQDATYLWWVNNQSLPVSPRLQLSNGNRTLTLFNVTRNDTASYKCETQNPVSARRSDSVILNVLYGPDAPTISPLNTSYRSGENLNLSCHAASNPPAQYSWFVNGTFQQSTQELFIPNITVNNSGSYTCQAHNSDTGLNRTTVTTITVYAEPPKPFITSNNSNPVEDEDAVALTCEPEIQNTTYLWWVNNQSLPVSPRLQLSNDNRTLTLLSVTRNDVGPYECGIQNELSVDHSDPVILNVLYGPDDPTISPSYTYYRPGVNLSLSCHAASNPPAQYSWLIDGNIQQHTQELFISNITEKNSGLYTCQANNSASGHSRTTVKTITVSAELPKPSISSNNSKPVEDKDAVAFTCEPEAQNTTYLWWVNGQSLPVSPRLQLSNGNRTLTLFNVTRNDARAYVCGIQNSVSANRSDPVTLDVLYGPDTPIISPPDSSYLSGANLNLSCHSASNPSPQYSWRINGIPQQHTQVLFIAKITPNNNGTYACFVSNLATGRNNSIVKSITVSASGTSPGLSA

human CEACAM5 on cells [2] = biological target: T3, human CEACAM5 on cells; assay: flow cytometry, MKN-45 cells

Row | Binder | binding result (Human CEACAM1) | Kd (CEACAM5 A1-B1-Fc) [nM] | kon (CEACAM5 A1-B1-Fc) [M⁻¹ s⁻¹] | EC50 (human CEACAM5 on cells [1]) [nM] | Max FOB (human CEACAM5 on cells [1]) [fold over background] | EC50 (human CEACAM5 on cells [2]) [nM] | Max FOB (human CEACAM5 on cells [2]) [fold over background]
1 | B1 | no binding (tested: up to 600 and 1200 nM) | 1.5 | 250000 | – | – | – | –
2 | B2 | no binding (tested: up to 600 and 1200 nM) | 1 | 260000 | 30.5 | 12 | 20.7 | 60
3 | B3 | – | – | – | 4.28 | 19 | 9.05 | 107
